# Experimental data reported in patent US20250333501A1 (University of California, published 2025).
# Columns and labels:
# [1] = target: T1, human CLDN6 fused to GFP, expressed on engineered HEK293T cells (HEK293T-CLDN6-mGFP) (human, UniProt P56747 1-220); assay: FACS, 0.3 µg Ab, 293T clone with human CLDN6
# T1 construct: It calls residues 1-21 a signal peptide; also called Claudin-6; HEK293T-CLDN6-mGFP Artificial CLDN6+; not shown: mGFP tag
# T1 sequence: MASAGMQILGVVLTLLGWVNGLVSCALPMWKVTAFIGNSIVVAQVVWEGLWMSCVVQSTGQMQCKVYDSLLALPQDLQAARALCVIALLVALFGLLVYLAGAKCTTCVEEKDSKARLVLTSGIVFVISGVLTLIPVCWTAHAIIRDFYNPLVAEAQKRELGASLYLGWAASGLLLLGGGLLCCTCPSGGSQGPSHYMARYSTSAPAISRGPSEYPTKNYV
# In short: (§1)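 Engineered 293T clones expressing human CLDN6 were detached with EDTA and incubated with Alexa Fluor 647 NHS ester-labelled humanized antibody, at 0.3 µg or 1.5 µg, for 30 min on ice in the dark. After washing, the cells were read by flow cytometry on a BD Accuri C6 in channel FL4H. Fluorescence in this direct-binding assay reflects relative antigen binding strength.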
# [2] = target: T2, CLDN6 endogenously expressed by human cancer cell lines (ARK2, OVCA429) (human, UniProt P56747 1-220); assay: FACS, 1.5 µg Ab, ARK2 cells
# T2 construct: Untagged endogenous protein; also called Endogenous CLDN6+
# T2 sequence: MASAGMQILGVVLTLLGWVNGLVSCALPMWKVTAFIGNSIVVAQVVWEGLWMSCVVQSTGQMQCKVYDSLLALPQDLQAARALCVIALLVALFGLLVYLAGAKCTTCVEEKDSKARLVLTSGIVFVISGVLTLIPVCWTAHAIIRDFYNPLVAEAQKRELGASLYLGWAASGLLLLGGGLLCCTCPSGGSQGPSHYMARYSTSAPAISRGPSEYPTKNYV
# Method: (§2) FACS assays were also carried out to determine relative antigen binding strengths of the humanized antibodies (at either 1.5 μg or 0.3 μg) for binding to CLDN6 as expressed by the indicated cancer cell lines. 2nd Ab only was used as a negative control.
# [3] = target: T1, human CLDN6 fused to GFP, expressed on …; assay: FACS, 1.5 µg Ab, 293T clone with human CLDN6
# In short: as §1
# [4] = target: T2, CLDN6 endogenously expressed by human …; assay: FACS, 0.3 µg Ab, ARK2 cells
# Method: as §2
# [5] = target: T2, CLDN6 endogenously expressed by human …; assay: FACS, 1.5 µg Ab, OVCA429 cells
Binder,FACS fluorescence [1],FACS fluorescence [2],FACS fluorescence [3],FACS fluorescence [4],FACS fluorescence [5]
"AB1-Chim (antibody, V domains shown, 'chim' is the pre-humanized form (parental variable regions); also called pre-humanized (chimeric) form of AB1) VH: QVQLQQSAAELARPGASVKMSCKASGYTFTTYTMHWVKQRPGQGLEWIGFINPSSGYTDYNQKFKDRTTLTADKSSSTVYMQLSSLTSEDSAVYYCANGDYYVAYWGQGTLVTVSA VL: QIVLTQSPAIMSASLGERVTMTCTASSSVSSTYFHWYQQKPGSSPKLWIYSTSNLASGVPRRFSGSASGTSYSLTISSMEAEDAATYYCHQYHRSPLTFGAGTKLELK",312000,51900,364000,58800,177000
"AB1-7 (antibody, V domains shown, Humanized; also called Humanized AB 1-7) VH: QVQLVQSGAEVKKPGASVKMSCKASGYTFTTYTMHWVRQAPGQGLEWIGFINPSSGYTDYAQKFQGRVTLTADTSTSTVYMELSSLRSEDTAVYYCANGDYYVAYWGQGTLVTVSS VL: DIQLTQSPSSLSASVGDRVTMTCTASSSVSSTYFHWYQQKPGKAPKLLIYSTSNLASGVPSRFSGSGSGTDYTLTISSMQPEDAATYYCHQYHRSPLTFGQGTKLEIK",79200,11200,207000,4440,44700
"AB1-3 (antibody, V domains shown, also called Humanized AB 1-3) VH: QVQLVQSGAEVKKPGASVKVSCKASGYTFTTYTMHWVRQAPGQGLEWMGFINPSSGYTDYAQKFQGRVTMTADTSTSTVYMELSSLRSEDTAVYYCANGDYYVAYWGQGTLVTVSS VL: DIQMTQSPSSLSASVGDRVTITCTASSSVSSTYFHWYQQKPGKAPKLLIYSTSNLASGVPSRFSGSGSGTDYTLTISSLQPEDFATYYCHQYHRSPLTFGQGTKLEIK",142000,10800,142000,2830,27500
"AB1-4 (antibody, V domains shown, also called Humanized AB 1-4) VH: QVQLVQSGAEVKKPGASVKVSCKASGYTFTTYTMHWVRQAPGQGLEWMGFINPSSGYTDYAQKFQGRVTMTADTSTSTVYMELSSLRSEDTAVYYCANGDYYVAYWGQGTLVTVSS VL: DIQLTQSPSSLSASVGDRVTMTCTASSSVSSTYFHWYQQKPGKAPKLLIYSTSNLASGVPSRFSGSGSGTDYTLTISSMQPEDAATYYCHQYHRSPLTFGQGTKLEIK",102000,10000,197000,3640,34600
"AB1-5 (antibody, V domains shown, also called Humanized AB 1-5) VH: QVQLVQSGAEVKKPGASVKVSCKASGYTFTTYTMHWVRQAPGQGLEWMGFINPSSGYTDYAQKFQGRVTMTADTSTSTVYMELSSLRSEDTAVYYCANGDYYVAYWGQGTLVTVSS VL: DIQLTQSPSSLSASVGDRVTMTCTASSSVSSTYFHWYQQKPGKAPKLWIYSTSNLASGVPSRFSGSGSGTDYTLTISSMQPEDAATYYCHQYHRSPLTFGQGTKLEIK",138000,22400,213000,7490,54300
"AB1-6 (antibody, V domains shown, also called Humanized AB 1-6) VH: QVQLVQSGAEVKKPGASVKMSCKASGYTFTTYTMHWVRQAPGQGLEWIGFINPSSGYTDYAQKFQGRVTLTADTSTSTVYMELSSLRSEDTAVYYCANGDYYVAYWGQGTLVTVSS VL: DIQMTQSPSSLSASVGDRVTITCTASSSVSSTYFHWYQQKPGKAPKLLIYSTSNLASGVPSRFSGSGSGTDYTLTISSLQPEDFATYYCHQYHRSPLTFGQGTKLEIK",120000,7740,227000,2820,29900
"AB1-11 (antibody, V domains shown, Humanized; also called Humanized AB 1-11) VH: QVQLVQSGAEVKKPGASVKMSCKASGYTFTTYTMHWVRQAPGQGLEWIGFINPSSGYTDYAQKFQGRVTLTADKSTSTVYMELSSLRSEDTAVYYCANGDYYVAYWGQGTLVTVSS VL: DIQLTQSPSSLSASVGDRVTMTCTASSSVSSTYFHWYQQKPGKAPKLWIYSTSNLASGVPSRFSGSGSGTDYTLTISSMQPEDAATYYCHQYHRSPLTFGQGTKLEIK",64900,97700,113000,53900,–
"AB3-7 (antibody, V domains shown, also called Humanized AB 3-7) VH: EVQLLESGGGLVQPGGSMRLSCAASGFTFSNYWMNWVRQAPGKGLEWVAQIRLKSDNYATHYADSVKGRFTISRDDSKNTVYLQMNSLRAEDTGVYYCNDGPPSGSWGQGTLLTVSS VL: DIQMTQSPSSLSASVGDRVTITCRISENIYSYLAWYQQKPGKAPKLLVYNAKILVEGVPSRFSGSGSGTDFTLTISSLQPEDFGTYYCQHHYTVPWTFGQGTKLEIK",106000,90400,169000,36000,–
"AB4-6 (antibody, V domains shown, also called Humanized AB 4-6) VH: QVQLVQSGAEVKKPGASVKMSCKASGYTFTSYTMHWIRQAPGQGLEWIGYINPSSTYTHYAQKFQGRATLTADKSTSTAYMELSSLRSEDTAVYYCSRGELGGFAYWGQGTLVTVSS VL: DVVMTQSPLSLPVTLGQPASISCRSSQSLVHSDGNTYLNWYQQRPGQSPRLLIYKVSNRFSGVPDRFSGSGSGTDFTLKISRVEAEDVGVYYCSQSTHVPYTFGQGTKLEIK",10800,9840,29200,3300,–
"AB4-7 (antibody, V domains shown, also called Humanized AB 4-7) VH: QVQLVQSGAEVKKPGASVKMSCKASGYTFTSYTMHWIRQAPGQGQEWIGYINPSSTYTHYAQKFQGRATLTADKSTSTAYMELSSLRSEDTAVYYCSRGELGGFAYWGQGTLVTVSS VL: DVVMTQSPLSLPVTLGQPASISCRSSQSLVHSDGNTYLNWYQQRPGQSPRLLIYKVSNRFSGVPDRFSGSGSGTDFTLKISRVEAEDVGVYYCSQSTHVPYTFGQGTKLEIK",19200,7560,33300,2770,–
"AB4-8 (antibody, V domains shown, Humanized; also called Humanized AB 4-8) VH: QVQLVQSGAEVKKPGASVKVSCKASGYTFTSYTMHWVRQAPGQGLEWMGYINPSSTYTHYIKKFKDRVTMTADTSTSTVYMELSSLRSEDTAVYYCSRGELGGFAYWGQGTLVTVSS VL: DVVMTQSPLSLPVTLGQPASISCRSSQSLVHSDGNTYLNWYQQRPGQSPRLLIYKVSNRFSGVPDRFSGSGSGTDFTLKISRVEAEDVGVYYCSQSTHVPYTFGQGTKLEIK",49300,7310,77600,3120,–
"AB4-9 (antibody, V domains shown, Humanized; also called Humanized AB 4-9) VH: QVQLVQSGAEVKKPGASVKMSCKASGYTFTSYTMHWIRQAPGQGLEWIGYINPSSTYTHYIKKFKDRATLTADTSTSTAYMELSSLRSEDTAVYYCSRGELGGFAYWGQGTLVTVSS VL: DVVMTQSPLSLPVTLGQPASISCRSSQSLVHSDGNTYLNWYQQRPGQSPRLLIYKVSNRFSGVPDRFSGSGSGTDFTLKISRVEAEDVGVYYCSQSTHVPYTFGQGTKLEIK",37200,7790,56900,3060,–
"AB4-10 (antibody, V domains shown, Humanized; also called Humanized AB 4-10) VH: QVQLVQSGAEVKKPGASVKMSCKASGYTFTSYTMHWIRQAPGQGQEWIGYINPSSTYTHYIKKFKDRATLTADTSTSTAYMELSSLRSEDTAVYYCSRGELGGFAYWGQGTLVTVSS VL: DVVMTQSPLSLPVTLGQPASISCRSSQSLVHSDGNTYLNWYQQRPGQSPRLLIYKVSNRFSGVPDRFSGSGSGTDFTLKISRVEAEDVGVYYCSQSTHVPYTFGQGTKLEIK",50800,20200,77200,7210,–
"AB4-11 (antibody, V domains shown, Humanized; also called Humanized AB 4-11) VH: QVQLVQSGAEVKKPGASVKMSCKASGYTFTSYTMHWIRQAPGQGLEWIGYINPSSTYTHYIKKFKDRATLTADKSTSTAYMELSSLRSEDTAVYYCSRGELGGFAYWGQGTLVTVSS VL: DVVMTQSPLSLPVTLGQPASISCRSSQSLVHSDGNTYLNWYQQRPGQSPRLLIYKVSNRFSGVPDRFSGSGSGTDFTLKISRVEAEDVGVYYCSQSTHVPYTFGQGTKLEIK",37800,9170,61200,6390,–
"AB4-12 (antibody, V domains shown, Humanized; also called Humanized AB 4-12) VH: QVQLVQSGAEVKKPGASVKMSCKASGYTFTSYTMHWIRQAPGQGQEWIGYINPSSTYTHYIKKFKDRATLTADKSTSTAYMELSSLRSEDTAVYYCSRGELGGFAYWGQGTLVTVSS VL: DVVMTQSPLSLPVTLGQPASISCRSSQSLVHSDGNTYLNWYQQRPGQSPRLLIYKVSNRFSGVPDRFSGSGSGTDFTLKISRVEAEDVGVYYCSQSTHVPYTFGQGTKLEIK",71100,24200,86200,9690,–
